The labels stand for the following.
B1: Neutrophil cytosol factor 2, residues 456 to 514; numbered along this chain, P19878 (parent)
chain: LKKGSQVEALFSYEATQPEDLEFQEGDIILVLSKVNEEWLEGECKGKVGIFPKVFVEDC

Here are results for 167 variants from the Human Domainome abundance scans (Beltran et al. 2025).

± gives the uncertainty stated by the source.

This data set covers variants of B1. Put plainly: abundance fitness (aPCA) (normalised: wild type 0, dead -1); higher = more abundant; growth selection in yeast, the domain comes from the species named. As to conditions: Homo sapiens.
For F11V, the abundance fitness is 0.035 ± 0.14. For F11I, the abundance fitness is -0.772 ± 0.47. In the case of F11A it was 0.567 ± 0.18. In the case of F11W it was -0.392 ± 0.3; in that of F11G, -0.176 ± 0.2. Regarding F11T, the abundance fitness was -0.347 ± 0.27.

I50F: the abundance fitness is -0.389 ± 0.14. The figure for I50D is -0.306 ± 0.16; for I50H it is -0.371 ± 0.18. The figure for I50C is -0.4 ± 0.15; for E8G it is -0.093 ± 0.28. In the case of E8T it was 0.126 ± 0.25; in that of E8Q, 0.472 ± 0.15; in that of E8R, 1.16 ± 0.095.

As for E8N, the abundance fitness stood at 0.524 ± 0.31. In the case of E57I it was -0.697 ± 0.22; in that of E57F, -0.607 ± 0.18; in that of E57K, 0.201 ± 0.2. The figure for D58L is -0.493 ± 0.15; for D58R it is 0.155 ± 0.13. The figure for D58Y is -0.595 ± 0.15; for D58C it is 0.313 ± 0.09.

For D58E, the abundance fitness came out at 0.091 ± 0.21. Regarding K45A, the abundance fitness is -0.765 ± 0.19. For the variant K45C, the abundance fitness is -0.191 ± 0.14. Regarding K45W, the abundance fitness is -0.125 ± 0.25. The figure for K45D is 0.065 ± 0.12; for Q6V it is 0.538 ± 0.12. For Q6E, the abundance fitness was -0.158 ± 0.18. Consider Q6A, for which the abundance fitness is -0.717 ± 0.27. In the case of V54E it was -0.124 ± 0.34; in that of V54W, -0.438 ± 0.2; in that of V54Y, -0.03 ± 0.12. In the case of V54H it was 0.425 ± 0.1; in that of V54Q, 0.298 ± 0.15. On to V54M, for which the abundance fitness came out at 0.378 ± 0.12.

On to P52L, for which the abundance fitness was -0.094 ± 0.12.

Regarding P52W, the abundance fitness is -0.953 ± 0.43. On to P52M, for which the abundance fitness was -0.253 ± 0.33. The figure for P52C is -0.51 ± 0.14; for L21P it is -0.529 ± 0.2. In the case of L21G it was -0.369 ± 0.094. The figure for L21M is -0.509 ± 0.29. Turning to L21I, the abundance fitness was -0.184 ± 0.11. In the case of L21S, the abundance fitness was -0.522 ± 0.12. The figure for L32K is 0.194 ± 0.15; for L32P it is -0.146 ± 0.15. The figure for L32T is 0.325 ± 0.088; for L32V it is -0.297 ± 0.1. In the case of L32Q it was -0.143 ± 0.34; in that of L32M, -0.532 ± 0.49. For the variant C59S, the abundance fitness is -0.012 ± 0.091. In the case of C59T it was 0.289 ± 0.13; in that of C59V, 0.402 ± 0.14; in that of C59H, -0.361 ± 0.22. Regarding C59N, the abundance fitness was -0.242 ± 0.18.

E25I: the abundance fitness is -0.68 ± 0.23. The figure for E25D is -0.9 ± 0.33. In the case of E25L it was -0.731 ± 0.17.

As to E25T, the abundance fitness stood at 0.035 ± 0.12. For the variant E25S, the abundance fitness was -0.239 ± 0.092. In the case of E25C it was -0.275 ± 0.14; in that of D20V, -0.578 ± 0.13; in that of D20Q, 0.093 ± 0.14. The figure for D20Y is 0.142 ± 0.073; for D20M it is 0.06 ± 0.17; for D20P it is -0.162 ± 0.15. In the case of D20A it was -0.198 ± 0.12; in that of D20K, -0.683 ± 0.38; in that of D20C, 0.014 ± 0.085. On to E14D, for which the abundance fitness is -0.073 ± 0.12.

In the case of E14G, the abundance fitness was -0.233 ± 0.11. The figure for E14I is -0.304 ± 0.13; for E14Y it is -0.215 ± 0.12.

Regarding E14W, the abundance fitness was -0.168 ± 0.16.

Turning to E14C, the abundance fitness was -0.301 ± 0.12.

As for G46A, the abundance fitness was -0.313 ± 0.15. In the case of G46V it was -0.585 ± 0.15; in that of G46M, -0.599 ± 0.34. The figure for G46K is -0.732 ± 0.42; for Q24M it is -0.311 ± 0.27.

With Q24V, the abundance fitness is -0.279 ± 0.11.

Regarding Q24P, the abundance fitness was -0.727 ± 0.4. In the case of Q24H it was -0.035 ± 0.13. Take Q24W: the abundance fitness was -0.14 ± 0.35. Regarding Q24N, the abundance fitness was -0.002 ± 0.11. As for Q24D, the abundance fitness is 0.235 ± 0.097. In the case of K34C it was -0.242 ± 0.12; in that of K34G, -0.822 ± 0.17; in that of K34M, -0.326 ± 0.2. On to K34Q, for which the abundance fitness is -0.215 ± 0.27. K34A: the abundance fitness was -0.359 ± 0.13. In the case of K34W it was -0.437 ± 0.31; in that of K34Y, -0.589 ± 0.15.

D27A: the abundance fitness was -0.142 ± 0.14.

Regarding D27Q, the abundance fitness is -0.212 ± 0.27. In the case of D27K it was -0.365 ± 0.28. Regarding D27E, the abundance fitness is -0.933 ± 0.44.

On to D27T, for which the abundance fitness was -0.695 ± 0.29. L40K: the abundance fitness was -0.918 ± 0.33. As to L40T, the abundance fitness is -0.749 ± 0.21. Regarding L40M, the abundance fitness is -0.042 ± 0.19.

For L40P, the abundance fitness is -0.02 ± 0.23.

As to L40W, the abundance fitness is -0.277 ± 0.2. In the case of L40Y it was 0.528 ± 0.077; in that of L40Q, -0.58 ± 0.4; in that of A9V, -1.13 ± 0.43. For A9C, the abundance fitness was 0.167 ± 0.23. The figure for A9L is -0.471 ± 0.17; for E38D it is 0.028 ± 0.12; for E38C it is -0.702 ± 0.15. As to E38S, the abundance fitness was -0.701 ± 0.13. In the case of E38N it was -0.131 ± 0.12. As for S5P, the abundance fitness was -0.804 ± 0.33. The figure for S5A is 0.353 ± 0.16.

Regarding S5Y, the abundance fitness stood at 0.219 ± 0.19.

On to T16C, for which the abundance fitness is -0.426 ± 0.14. The figure for T16L is -0.076 ± 0.11; for T16F it is -0.609 ± 0.2; for T16Q it is -0.158 ± 0.43.

In the case of T16W, the abundance fitness was -0.651 ± 0.37.

With T16M, the abundance fitness is -0.164 ± 0.4. Take T16D: the abundance fitness is -0.428 ± 0.12. The figure for V48A is 0.008 ± 0.11; for V48R it is 0.68 ± 0.097; for V48K it is 0.295 ± 0.19. In the case of V48P it was -1.04 ± 0.37; in that of V48S, -0.355 ± 0.13; in that of V48G, -0.387 ± 0.15. For the variant F23W, the abundance fitness is -0.889 ± 0.37.

As for F23R, the abundance fitness is -0.223 ± 0.12. In the case of F23H it was -0.117 ± 0.15; in that of F23N, -0.381 ± 0.16; in that of I29M, -0.686 ± 0.26. The figure for I29R is -0.427 ± 0.13; for I29L it is -0.454 ± 0.12; for I29S it is -0.374 ± 0.11. The figure for I29D is -0.41 ± 0.15; for I29V it is -0.795 ± 0.17. Regarding I29Q, the abundance fitness is -0.783 ± 0.38. In the case of Y13F it was -0.391 ± 0.12.

With Y13C, the abundance fitness was -0.432 ± 0.19. The figure for Y13A is -0.505 ± 0.21; for Y13M it is 0.207 ± 0.21. As to Y13T, the abundance fitness was -0.644 ± 0.14. In the case of Y13W it was -0.484 ± 0.26; in that of Y13P, -0.21 ± 0.17. In the case of K2W it was -0.109 ± 0.27; in that of K2R, 0.002 ± 0.13; in that of K2F, 0.093 ± 0.48.

For K2G, the abundance fitness was -0.307 ± 0.17. The figure for K2A is 0.146 ± 0.19; for I28L it is -0.284 ± 0.1. In the case of I28D it was 0.056 ± 0.13; in that of I28F, -0.443 ± 0.14. In the case of I28K it was 0.638 ± 0.15; in that of V56K, -0.637 ± 0.48. As for V56C, the abundance fitness was -0.52 ± 0.16.

Take V56D: the abundance fitness was -0.412 ± 0.16. The figure for V56I is -0.81 ± 0.22; for V56P it is -1.09 ± 0.48; for V56E it is -0.415 ± 0.36.

Turning to L1M, the abundance fitness was found to be 0.035 ± 0.27. L1N: the abundance fitness is -0.024 ± 0.49.

Consider L1W, for which the abundance fitness turned out to be 0.161 ± 0.2. In the case of L1R it was 0.08 ± 0.27; in that of L1V, -0.294 ± 0.34.
